The supplement of paper PMC6379048

Columns and labels:
Assay in all cases: Kd (EC50 corrected by depletion factor)
MRPS22 = MRPS22 (UniProt P82650)
Summary of the method: (§1)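 Over three biological replicates and two independent experiments, proteins captured on NHS-Sepharose beads carrying 5′-amino-C6 RNA oligos were quantified by label-free LC-MS/MS and normalised to the control. Capture lasted 30 min at 4°C and followed a 1 h pre-incubation at 4°C of HEK293-FT lysate (2.5 mg protein/well) with the same oligos in free form (0 nM to 30 μM). EC50 was taken from a four-parameter log-logistic fit, and Kd was EC50 corrected by a protein-dependent depletion factor.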

PRPF3 = molecular target: T1, PRPF3 (UniProt O43395)
T1 sequence: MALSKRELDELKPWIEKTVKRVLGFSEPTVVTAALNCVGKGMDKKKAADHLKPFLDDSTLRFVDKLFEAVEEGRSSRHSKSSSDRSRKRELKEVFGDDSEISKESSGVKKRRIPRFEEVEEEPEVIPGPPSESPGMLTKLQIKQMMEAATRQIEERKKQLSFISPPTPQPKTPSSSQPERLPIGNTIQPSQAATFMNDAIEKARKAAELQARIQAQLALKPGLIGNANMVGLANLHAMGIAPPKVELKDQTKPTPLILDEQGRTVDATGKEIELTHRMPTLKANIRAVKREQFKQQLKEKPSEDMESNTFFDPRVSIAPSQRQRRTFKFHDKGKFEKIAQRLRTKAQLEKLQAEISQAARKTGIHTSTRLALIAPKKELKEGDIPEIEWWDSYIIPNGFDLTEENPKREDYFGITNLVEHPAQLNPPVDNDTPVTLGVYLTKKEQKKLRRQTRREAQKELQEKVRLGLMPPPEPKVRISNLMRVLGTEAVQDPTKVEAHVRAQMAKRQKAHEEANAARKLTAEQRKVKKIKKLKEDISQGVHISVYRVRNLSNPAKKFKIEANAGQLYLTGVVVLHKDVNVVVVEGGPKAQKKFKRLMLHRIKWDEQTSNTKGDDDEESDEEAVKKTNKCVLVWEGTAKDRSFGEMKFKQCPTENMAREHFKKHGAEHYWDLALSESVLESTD
Summary of the method: as §1

PRPF31 = molecular target: T2, PRPF31 (UniProt Q8WWY3)
T2 sequence: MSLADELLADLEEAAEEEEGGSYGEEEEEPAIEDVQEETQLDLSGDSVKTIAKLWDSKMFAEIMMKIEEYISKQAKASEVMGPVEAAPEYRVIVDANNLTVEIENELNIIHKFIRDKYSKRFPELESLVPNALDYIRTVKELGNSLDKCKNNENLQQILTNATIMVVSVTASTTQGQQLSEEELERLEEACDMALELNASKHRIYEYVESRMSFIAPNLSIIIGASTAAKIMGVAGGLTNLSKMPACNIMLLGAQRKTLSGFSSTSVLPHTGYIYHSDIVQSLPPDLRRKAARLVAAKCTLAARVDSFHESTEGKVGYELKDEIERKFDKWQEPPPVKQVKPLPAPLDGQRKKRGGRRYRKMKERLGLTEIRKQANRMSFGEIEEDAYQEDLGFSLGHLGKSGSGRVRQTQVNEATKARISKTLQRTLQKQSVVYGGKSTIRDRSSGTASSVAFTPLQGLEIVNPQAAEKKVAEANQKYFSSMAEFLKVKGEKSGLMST
Summary of the method: as §1

RBM47 = molecular target: T3, RBM47 (UniProt A0AV96)
T3 sequence: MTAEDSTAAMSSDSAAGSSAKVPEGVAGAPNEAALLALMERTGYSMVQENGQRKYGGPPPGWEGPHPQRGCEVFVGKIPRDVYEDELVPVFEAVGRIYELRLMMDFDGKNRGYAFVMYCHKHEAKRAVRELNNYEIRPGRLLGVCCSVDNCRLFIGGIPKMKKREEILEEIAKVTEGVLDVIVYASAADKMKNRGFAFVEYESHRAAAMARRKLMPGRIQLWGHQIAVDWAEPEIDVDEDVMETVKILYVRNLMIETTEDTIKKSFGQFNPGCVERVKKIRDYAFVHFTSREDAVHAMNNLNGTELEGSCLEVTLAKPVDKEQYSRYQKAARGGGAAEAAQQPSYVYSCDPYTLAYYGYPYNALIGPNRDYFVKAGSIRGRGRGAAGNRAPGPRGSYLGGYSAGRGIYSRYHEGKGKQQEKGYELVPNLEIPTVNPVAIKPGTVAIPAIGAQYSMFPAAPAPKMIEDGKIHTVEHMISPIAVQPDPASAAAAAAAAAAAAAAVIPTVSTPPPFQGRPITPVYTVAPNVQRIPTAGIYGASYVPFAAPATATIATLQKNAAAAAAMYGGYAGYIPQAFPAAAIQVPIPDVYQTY
Summary of the method: as §1

RPL7 = RPL7 (UniProt P18124)
Summary of the method: as §1

ICT1 = ICT1 (UniProt Q14197)
Summary of the method: as §1

MRPL17 = MRPL17 (UniProt Q9NRX2)
Summary of the method: as §1

RPS3A = RPS3A (UniProt P61247)
Summary of the method: as §1

Work on UAUUUAU yielded a Kd (MRPS22) of 57.8 nM, a Kd (PRPF3) of 2670 nM and a Kd (PRPF31) of 2850 nM.

Sequence AAUAAA has a Kd (RBM47) of 417 nM and a Kd (RPL7) of 3960 nM.

In the case of CUGUCCU, the Kd (ICT1) is reported as 48.1 nM, the Kd (MRPL17) is reported as 20.4 nM and the Kd (RPS3A) is reported as 64.2 nM.
